# Laboratory results: the nanobody polyreactivity screen of Harvey et al. (2022)
# Test: yeast display, Sf9 membrane polyspecificity reagent, FACS + sequencing; frameworks hold sequencing errors
# In short: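 Polyreactivity labels are assigned by the sorting gate from which each nanobody was recovered. The gates were low and high (top ~1%), set on anti-HA fluorescence for expression and streptavidin fluorescence for reagent binding. Before sorting, galactose-induced (36–48 hours) yeast display cells were stained for 1 hour at 4 °C with 10% biotinylated, detergent-solubilized Sf9 membrane reagent.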
row,Sequence,polyreactivity (PSR sort gate)
1,QVQLVESGGGLVQAGGSLRLSCAASGIILPKYSMGWYRQAPGKERELVAAITRSGGSTYYADSVKGRFTISRDNAKNTVYLQMNSLKPEDTAVYYCAARAANPTRTARYNYWGHGTQVTVSS,high polyreactivity
2,QVQLVESGGGLVQAGGSLRLSCAASGIILPVYAMGWYRPAPGKERELVAAIRWSSGRTYYADSVKGRFTISRDNAKNTVYLQMNSLKPEDTAVYYCAAYPSSEYDYWGQGTQVTVSS,low polyreactivity
3,QVQLVESGGGLVQAGGSLRLSCAASGIILPVYAMGWYRQAPGKERELVAAIRWCSGRTYYADSVKGRFTISRDNAKNTVFLQMNSLKPEDTAVYYCAKDGGQRKYDYWGQGTQVTVSS,low polyreactivity
4,QVQLVESGGGLVQAGGSLRLSCAASGIILPVYAMGWYRQAPGKERELVAAIRWSSGRTYYADSVKGRFTISRDNAKNTVYLQMNSLKPEDTAVYYCNAALYHDSEYNYWGQGTQVTVSS,high polyreactivity
5,QVQLVESGGGLVQAGGSLRLSCAASGIILRYYAMGWYRQAPGKERELVASITSSGGRTYYADSVKGRFRISRDNAKNTVYLQMNSLKPEDTAVDYCAAKWAVVSGYGYWGQGTQVTVSS,high polyreactivity
6,QVQLVESGGGLVQAGGSLRLSCAASGIILSPYTMGWYRQAPGKERELVAGISRSGGTTYYADSVKGRFTISRDNAKNTVYLQMNSLKPEDTAVYYCAARKPGWGHEWWVEHYYYWGQGTQVTVSS,low polyreactivity
7,QVQLVESGGGLVQAGGSLRLSCAASGIILTQNAMGWYRQAPGKERELVAAITESGARTYYADSVKGRFTISRDNAKNTVYLQMNSLKPEDTAVYYCNAYRYYRGQVYPFYYWGQGTQVTVSS,low polyreactivity
8,QVQLVESGGGLVQAGGSLRLSCAASGIILYWNAMGWYRQAPGKERELVARITSGGSTNYADSVKGRFTISRDNAKNTVYLQMNSLKPEDTAVYYCAADYKAYGRSYDYWGQGTQVTVSS,low polyreactivity
9,QVQLVESGGGLVQAGGSLRLSCAASGIILYYYVMVWYRQEPGKEREFVAAINRSGTSTYYADSVKGRFTISRDNAKNTVYLQMNSLKPADTAVYYCAAERYWSGGVFDYDYWGQGTQVTVSS,high polyreactivity
10,QVQLVESGGGLVQAGGSLRLSCAASGIIMRKYAMGWYRQAPGKERELVAAITTRGSRTYYADSVKGRFTISRDNAKNTVYLQMNSLKPEDTAVYYCAADRYTVRMDYWGQGTQVTVSS,high polyreactivity
11,QVQLVESGGGLVQAGGSLRLSCAASGIISIFNVMGWYRQAPGKEMEWVASITGRGGSTFYADSVKGRFTISRDNAKNTVDLLMNSMKPEATAVYFCATDNGYTYPVTGLYDYWGQGTQVTVSS,low polyreactivity
12,QVQLVESGGGLVQAGGSLRLSCAASGIISSTNAMGWYRQEPGKERELVAAISGRGSGTYYADSVKGRFTISRDNAKNTVYLQMNRLKPEDTAVYYCAALSNVFQWWFKTNKSRYDYWGQGTQVTVSS,high polyreactivity
13,QVQLVESGGGLVQAGGSLRLSCAASGIISSVYAMGWYRQAPGKERELVAAITGSGGNTYYADSVKGRFTISRDNAKNTVSLQMNSLKPEDTAVYYCATDDAIISYELVYQYDHWGQGTQVTVSS,low polyreactivity
14,QVQLVESGGGLVQAGGSLRLSCAASGIISYQKAMGWYRQAPGKERELVAGITYSGGSTYYADSVKGRFTISRDNAKNSVYLQMNSLKPEDTAVYYCAARVVYWTWAGLSKMDYWGQGTQVTVSS,high polyreactivity
15,QVQLVESGGGLVQAGGSLRLSCAASGIIYGIYAMGWYRQAPGKERELVAAITSRGGTTYYADSVKGRFTISRDNAKNTVYLQMNSLKPEDTAVYYCAARGRRYSHRVGYDWGQGTQVTVSS,high polyreactivity
16,QVQLVESGGGLVQAGGSLRLSCAASGIIYKSYAMGWYRQAPGKERELVAVIRWSGGSTYYSDSVKGRFTISRDNAKNTVYLQMNSLKPEDTAVYYCAATPRKSYSIRRYDYWGQGTQVTVSS,high polyreactivity
17,QVQLVESGGGLVQAGGSLRLSCAASGIIYKYAMGWYRQAPGKERELVATITWSDGSTYYADSVKGRFTISRDNAKNTVYLQMNSLKPDDTAVYYCAADDYYGYDYWGQGTQVTVSS,low polyreactivity
18,QVQLVESGGGLVQAGGSLRLSCAASGIIYYENTMGWYRQAPGKERELVAPINSGGSTYYADCVKGRFTISRDNAKNTVYLQMNSLKPEDTAVYYCAADDYSGLYYSSTYRYEYWGQGTQVTVSS,low polyreactivity
19,QVQLVESGGGLVQAGGSLRLSCAASGINFDDYVMGWYRQAPGKERELFAAISSSGGSTYYADSVKGRFTISRDNAKNTVYLQMNSLKPEDTAVYYCAADYGSYGVVRAVSIEYEYWGQGTKVTVSS,low polyreactivity
20,QVQLVESGGGLVQAGGSLRLSCAASGINFPRYMGWYRQAPGKERELVAAIRWSSDDTNYADSVKGRFTISRDNAKNTVYLQMNSLKPEDTAVYYCAADSYYDRTIQFEFSASTYDYWGQGTQVTVSS,low polyreactivity
21,QVQLVESGGGLVQAGGSLRLSCAASGINFRLNAMGWYRQAPGKERELVAAIRRRGGSTYYADSVKGRFTISRDNAKNTVYLQMNSLIPEDTAVYYCAKDPHGSDFGYWGQGNQVTVSS,low polyreactivity
22,QVQLVESGGGLVQAGGSLRLSCAASGINFRTYAMGWYRQAPGKERELVAAINSDGSTYYADSVKGRFTISRDNAKITVYLQMNSLKPEDNAVYYCAAVVWRIHAYYWAVDGWYYYWGQGTQVTVSS,high polyreactivity

row,Sequence,polyreactivity (PSR sort gate)
1,QVQLVESGGGLVQAGGSLRLSCAASGINFSFYTMRWYRQAPGIERELVAAISSGGDTYYADSVNGRFTNSRDNAKNTVYLQMNSLKPEVTAVYYCAVDQYDRTTAFCYWYPYYYWGQGTQVTVSS,low polyreactivity
2,QVQLVESGGGLVQAGGSLRLSCAASGINFVLYAMGWYRQAPGKERELVAAITSGGRTYYADSVNGRFTISRDNAKNTVYLQMISLKPEDTAVYYCADNYFTQRLWFDYWGQGTQVSVSS,high polyreactivity
3,QVQLVESGGGLVQAGGSLRLSCAASGINFWYYAMVGYRQATGKERELDAAITGGSTYYADSVKGRFTISRDNAKNTVYLQMISLKQEDTAVYYCNADSVFEYWDYDYWGQGTQVTVSS,low polyreactivity
4,QVQLVESGGGLVQAGGSLRLSCAASGINFYYYTMGWYRQAPGKERELVAGITRGGRTYYADSVKGRFTISRDNAKNTVYLQMNSLKPEDTAVYYCNADPWWRFDYWGQGTQVTVSS,low polyreactivity
5,QVQLVESGGGLVQAGGSLRLSCAASGISFRRYTMGSYRQAPGKERELVDTISLSDGNTYYADSVKGRFTISRDNAKNTVYLQMNSMKPEDTAVYYCNARHTWHQSYDYWGQGTQVSVSS,low polyreactivity
6,QVQLVESGGGLVQAGGSLRLSCAASGISFSYYAMGLCRQAPGKERELVAAISISGGRTYYADSVKGRFTISRDNAKNTVYLQMNSLKPEDTAVYYCASCVGSRIKQVGNDYWGQVTQVTVSS,high polyreactivity
7,QVQLVESGGGLVQAGGSLRLSCAASGITFADNAMGWYRPAPGKERELVAAITSGGSTYYADSVKGRFTISRDNAKNTVYLQMNSLKPEDTAVYYCNVRVRRLFYWARLVAYDYWGQGTQVTVSS,high polyreactivity
8,QVQLVESGGGLVQAGGSLRLSCAASGITFADNAMGWYRQAPGKERELVAANSWSGDRTFYADSVKGRFTISRDNAKNTVYLQMNSLKPEDTAVYYCARDSLQVFYPYASDDYWGQGTQVTVSS,low polyreactivity
9,QVQLVESGGGLVQAGGSLRLSCAASGITFAGYAMGWYRQAPGKERELVAAISRGGSTYYADSVKGRFTISRDNAKNTVYLQMNSLKPEDTAVYYCNTDDQQGYFTYTGWNYNYWGQGTQVTVSS,high polyreactivity
10,QVQLVESGGGLVQAGGSLRLSCAASGITFARYAMGWYRQAPGKERELVAAISRNAGRTYYADSVKGRFTISRDNAKNTVYLQMNSLKPEDTAVYYCAAVTKSSVPGSRYDYWGQGTQVTVSS,high polyreactivity
11,QVQLVESGGGLVQAGGSLRLSCAASGITFARYAMGWYRQAPGKERELVAAISSRGGRTYYADSVKGRFTISRDNAKNTVYLQMNSLKPEDTAVYYCAADYVWSTISGYWGQGTQVTVSS,high polyreactivity
12,QVQLVESGGGLVQAGGSLRLSCAASGITFATNTMGWYRQAPGKERELVASINYRGGSTYYADSVKGRFTISRDNAKNTVYLQMNSLKPEDTAVYYCNADIYLEYDYWGQGTQVTVSS,low polyreactivity
13,QVQLVESGGGLVQAGGSLRLSCAASGITFAVYTMGWYSQAPGKERELVAAITGSGGRTYYADSVKGRFTISRDNAKNTVYLQMNSLKPEDTAVYYCNAVQRSSRQTFEYWGQGTQVTVSS,low polyreactivity
14,QVQLVESGGGLVQAGGSLRLSCAASGITFAYYGMGWYRQAPGKERELVAAISWTGSSTYYADSVKGRFTISRDNAQNTVYLQMNSLKPEDTAVYYCAARQRYRYDYWGQGTQVTVSS,high polyreactivity
15,QVQLVESGGGLVQAGGSLRLSCAASGITFDDNAMAWYRQAPGKERELVATISDGGRTYYADSVKGRFTISRDNAKNTVFLQMNILKPEDTGVYYCAAGYPYYHVYGYGYWGQGTLVTVSS,low polyreactivity
16,QVQLVESGGGLVQAGGSLRLSCAASGITFDEYAMGWYRQAPGKERELVAAISWRGAITYYADSVKGRFTISRDNAKNTVYLQMNSLKPEDTAGYYCNADRAYTYVRYYITQDFGYWGQGTQVTVSS,high polyreactivity
17,QVQLVESGGGLVQAGGSLRLSCAASGITFDEYAMGWYRQAPGKERELVASISAGSTYYADSVKGRFTISRDNAKNTVYLQMNSLKPEDTAVYYCAVVVDYDAYRYWGYDYWGQGTQVTVSS,high polyreactivity
18,QVQLVESGGGLVQAGGSLRLSCAASGITFDGYAMGWYRQAPGKERELVAAISISGASTYYADSVKGRFTISRDNAKNTVYLQKNSLKPEDTAVYYCAASSWINQYPGDYWGQGTQVTVSS,high polyreactivity
19,QVQLVESGGGLVQAGGSLRLSCAASGITFDGYAMGWYRQAPGKERELVAAISNTGDTTYYADSVKGRFTISRDNAKNTVYLQMNSLKPEDTAVYYCAGQRYYSYEYWGQGTQVTVSS,high polyreactivity
20,QVQLVESGGGLVQAGGSLRLSCAASGITFDINAMGWYRQAPGKERELVAAISKSGRTYYADSVKGRFTISRDNAKNTVYLQMNSLKPEDTAVYYCNKVPYPSNDYWGQGTQVTVSS,high polyreactivity
21,QVQLVESGGGLVQAGGSLRLSCAASGITFDKNTMGWYRQAPGKERELVAAISARGGSTYYADSVKGRFTISRDNAKNTVYLQMNSLKPEDTAVYSCAADYSARYGYWGQGTQVNVSS,high polyreactivity
